Measured values from paper PMC6868236.

Target: Tra1 (S. pombe) (UniProt Q9HFE8)
Assay: Spt7-TAP tandem affinity purification of SAGA, LC-MS/MS label-free quantification (LFQ)
Conditions: parent: 1.0

Chain of UniProt Q9HFE8 (Q9HFE8 whole entry): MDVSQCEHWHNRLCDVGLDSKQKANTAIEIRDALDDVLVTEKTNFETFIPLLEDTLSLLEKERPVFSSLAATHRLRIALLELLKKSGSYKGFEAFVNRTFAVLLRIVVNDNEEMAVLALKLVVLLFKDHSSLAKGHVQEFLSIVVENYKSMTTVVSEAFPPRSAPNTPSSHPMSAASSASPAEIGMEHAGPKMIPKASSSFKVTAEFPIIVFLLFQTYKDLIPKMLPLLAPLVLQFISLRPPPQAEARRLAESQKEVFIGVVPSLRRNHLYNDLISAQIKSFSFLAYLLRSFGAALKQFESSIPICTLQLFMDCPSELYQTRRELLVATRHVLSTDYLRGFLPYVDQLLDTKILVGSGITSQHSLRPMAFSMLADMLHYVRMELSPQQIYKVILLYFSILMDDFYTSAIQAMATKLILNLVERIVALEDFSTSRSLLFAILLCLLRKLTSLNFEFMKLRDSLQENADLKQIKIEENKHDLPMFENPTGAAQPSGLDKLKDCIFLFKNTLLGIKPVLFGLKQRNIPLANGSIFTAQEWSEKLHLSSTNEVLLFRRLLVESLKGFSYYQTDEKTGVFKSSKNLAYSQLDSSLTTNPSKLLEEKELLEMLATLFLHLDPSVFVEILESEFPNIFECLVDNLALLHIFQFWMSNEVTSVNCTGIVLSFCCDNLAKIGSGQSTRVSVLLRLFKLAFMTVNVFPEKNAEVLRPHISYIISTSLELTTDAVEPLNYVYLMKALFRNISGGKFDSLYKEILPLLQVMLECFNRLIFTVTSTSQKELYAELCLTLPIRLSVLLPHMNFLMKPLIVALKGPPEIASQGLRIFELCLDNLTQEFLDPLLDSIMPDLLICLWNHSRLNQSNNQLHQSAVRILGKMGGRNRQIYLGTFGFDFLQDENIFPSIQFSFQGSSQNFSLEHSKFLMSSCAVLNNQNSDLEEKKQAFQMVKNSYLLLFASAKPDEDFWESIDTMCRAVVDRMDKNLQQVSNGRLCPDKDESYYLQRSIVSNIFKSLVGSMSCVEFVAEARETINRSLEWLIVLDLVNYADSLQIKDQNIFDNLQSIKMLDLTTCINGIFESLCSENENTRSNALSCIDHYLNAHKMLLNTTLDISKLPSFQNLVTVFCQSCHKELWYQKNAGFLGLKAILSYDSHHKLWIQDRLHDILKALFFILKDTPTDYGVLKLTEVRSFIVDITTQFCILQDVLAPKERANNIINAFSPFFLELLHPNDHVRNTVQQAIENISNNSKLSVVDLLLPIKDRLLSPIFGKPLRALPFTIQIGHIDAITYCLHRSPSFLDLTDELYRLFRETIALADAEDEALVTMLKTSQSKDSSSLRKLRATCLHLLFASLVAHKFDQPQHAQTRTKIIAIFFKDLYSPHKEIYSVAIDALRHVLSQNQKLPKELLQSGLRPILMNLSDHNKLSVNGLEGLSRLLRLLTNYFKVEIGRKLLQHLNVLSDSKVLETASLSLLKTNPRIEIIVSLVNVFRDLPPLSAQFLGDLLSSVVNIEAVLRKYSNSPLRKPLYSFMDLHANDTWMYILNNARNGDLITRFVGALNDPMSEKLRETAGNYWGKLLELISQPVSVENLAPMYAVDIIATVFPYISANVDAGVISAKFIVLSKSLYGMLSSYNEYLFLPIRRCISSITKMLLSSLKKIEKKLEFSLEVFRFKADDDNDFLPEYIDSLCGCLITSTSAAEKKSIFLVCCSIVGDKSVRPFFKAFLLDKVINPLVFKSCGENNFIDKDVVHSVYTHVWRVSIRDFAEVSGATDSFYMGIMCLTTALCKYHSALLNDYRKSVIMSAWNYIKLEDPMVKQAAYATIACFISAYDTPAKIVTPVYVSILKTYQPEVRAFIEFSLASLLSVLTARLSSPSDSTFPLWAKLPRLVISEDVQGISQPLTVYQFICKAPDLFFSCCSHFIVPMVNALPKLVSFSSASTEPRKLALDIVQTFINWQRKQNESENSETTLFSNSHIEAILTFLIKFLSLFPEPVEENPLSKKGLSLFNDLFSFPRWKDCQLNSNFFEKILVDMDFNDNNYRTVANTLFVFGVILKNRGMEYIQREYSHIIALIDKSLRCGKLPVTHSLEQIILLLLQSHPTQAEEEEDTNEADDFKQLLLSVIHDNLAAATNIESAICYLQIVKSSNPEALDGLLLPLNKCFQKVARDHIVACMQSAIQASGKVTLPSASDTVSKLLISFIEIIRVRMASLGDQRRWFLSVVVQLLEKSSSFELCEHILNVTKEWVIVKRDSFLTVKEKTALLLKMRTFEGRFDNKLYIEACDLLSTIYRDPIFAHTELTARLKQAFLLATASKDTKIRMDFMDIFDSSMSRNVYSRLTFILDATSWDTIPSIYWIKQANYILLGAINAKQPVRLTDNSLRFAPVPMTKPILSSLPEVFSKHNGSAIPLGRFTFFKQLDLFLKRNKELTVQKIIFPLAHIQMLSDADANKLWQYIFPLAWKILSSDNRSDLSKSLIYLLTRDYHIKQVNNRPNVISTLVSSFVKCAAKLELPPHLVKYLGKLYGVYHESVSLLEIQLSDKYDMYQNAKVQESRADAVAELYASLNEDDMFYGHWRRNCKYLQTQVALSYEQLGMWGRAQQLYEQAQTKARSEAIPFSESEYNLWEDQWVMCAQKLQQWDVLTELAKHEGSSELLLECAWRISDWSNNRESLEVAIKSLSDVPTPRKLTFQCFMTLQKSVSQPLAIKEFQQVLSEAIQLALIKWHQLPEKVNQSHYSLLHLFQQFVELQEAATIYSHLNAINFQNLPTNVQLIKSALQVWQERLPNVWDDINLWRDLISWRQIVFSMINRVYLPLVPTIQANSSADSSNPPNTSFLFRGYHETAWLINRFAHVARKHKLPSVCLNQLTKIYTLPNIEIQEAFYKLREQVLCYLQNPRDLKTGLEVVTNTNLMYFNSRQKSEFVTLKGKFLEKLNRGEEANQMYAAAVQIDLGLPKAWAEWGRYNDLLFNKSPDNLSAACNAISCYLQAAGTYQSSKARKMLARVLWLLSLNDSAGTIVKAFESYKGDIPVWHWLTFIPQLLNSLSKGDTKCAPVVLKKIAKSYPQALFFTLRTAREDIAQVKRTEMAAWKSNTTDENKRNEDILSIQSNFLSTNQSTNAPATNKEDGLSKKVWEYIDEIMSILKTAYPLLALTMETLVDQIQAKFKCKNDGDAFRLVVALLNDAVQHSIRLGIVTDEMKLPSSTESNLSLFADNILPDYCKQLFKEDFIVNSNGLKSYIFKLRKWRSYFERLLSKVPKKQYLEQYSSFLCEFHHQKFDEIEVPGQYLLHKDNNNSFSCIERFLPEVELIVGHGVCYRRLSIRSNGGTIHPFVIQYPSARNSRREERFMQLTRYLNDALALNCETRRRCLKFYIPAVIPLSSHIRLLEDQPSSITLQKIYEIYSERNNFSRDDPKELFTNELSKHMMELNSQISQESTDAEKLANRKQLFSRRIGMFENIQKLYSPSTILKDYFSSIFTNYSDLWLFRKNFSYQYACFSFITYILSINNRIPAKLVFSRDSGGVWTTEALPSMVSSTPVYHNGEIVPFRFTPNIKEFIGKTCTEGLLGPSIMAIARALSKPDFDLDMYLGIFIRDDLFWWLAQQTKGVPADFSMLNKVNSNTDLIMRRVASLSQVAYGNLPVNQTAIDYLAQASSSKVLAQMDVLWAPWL

ratio to parent	Substance
0.02	Spt20 (S. pombe) (from UniProt O14174) FIEN>AAAA (HIT sequence … changed to …)
0.51	Spt20 (S. pombe) (from UniProt O14174) RRKR>AAAA (HIT sequence … changed to …)
